Publication PMC7198388, “Radiohybrid Ligands: A Novel Tracer Concept Exemplified by ^18F- or ^68Ga-Labeled rhPSMA Inhibitors” (Journal of Nuclear Medicine, 2020)
Like-named read-outs stand apart in the source and are kept apart here.

Key:
human serum albumin = target: T1, human serum albumin (Homo sapiens, UniProt P02768); assay: HSA binding by HPLC on Chiralpak HSA column; assay type: in vitro ADME; conditions: affinity HPLC, 50 mM NH4OAc pH 6.9/isopropanol gradient, r.t., 0.5 mg/mL, calibrated with nine reference substances, natGa-19F form
T1 construct: purchased Daicel H13H-2433
T1 sequence (P02768 25-609): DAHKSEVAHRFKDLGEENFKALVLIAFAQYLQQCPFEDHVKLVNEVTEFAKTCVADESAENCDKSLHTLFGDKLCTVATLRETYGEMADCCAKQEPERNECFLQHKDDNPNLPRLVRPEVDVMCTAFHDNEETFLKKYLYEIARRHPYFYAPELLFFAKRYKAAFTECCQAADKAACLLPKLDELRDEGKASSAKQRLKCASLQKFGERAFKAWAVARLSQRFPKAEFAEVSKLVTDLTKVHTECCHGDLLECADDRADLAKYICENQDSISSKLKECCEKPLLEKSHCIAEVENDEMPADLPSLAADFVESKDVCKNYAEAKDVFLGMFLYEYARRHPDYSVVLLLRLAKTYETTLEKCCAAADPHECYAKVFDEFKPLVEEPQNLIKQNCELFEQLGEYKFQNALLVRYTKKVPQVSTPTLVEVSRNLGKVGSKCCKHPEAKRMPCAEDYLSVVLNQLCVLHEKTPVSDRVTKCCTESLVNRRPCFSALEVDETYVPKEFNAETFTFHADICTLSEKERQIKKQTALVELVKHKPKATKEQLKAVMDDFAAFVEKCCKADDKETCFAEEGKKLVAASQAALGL
Procedure: with water (10 mL). The purified product was eluted with 50% aqueous ethanol (2 mL), phosphate buffered saline (PBS, 1 mL) and again water (1 mL). After removing ethanol in vacuo, purity of the radiolabelled compounds was determined by radio-HPLC and radio-TLC (ITLC-SG chromatography paper, mobile phase: 0.1 M trisodium citrate and Silica gel 60 RP-18 F254s, mobile phase: 3:2 mixture (v/v) of MeCN in H2O supplemented with 10% of 2 M NaOAc solution and 1% of TFA).
6. Human Serum Albumin (HSA) Binding
HSA binding of the PSMA-addressing ligands was determined according to a previously published procedure via HPLC (7). A Chiralpak HSA column (50 x 3 mm, 5 μm, H13H-2433, Daicel, Tokyo, Japan) […]
literature, in the range of 13 to 99% (7,8). All substances, including the examined PSMA ligands, were […]
final concentration of 0.5 mg/mL.
(Northampton, United States).
Affinity determinations (IC50)
The PSMA affinity (IC50) determinations and synthesis of the radioiodinated reference ligand (((S)-1- […]
described previously (1). Briefly, the respective ligand was diluted (serial dilution 10-4 to 10-10) in Hank’s balanced salt solution (HBSS, Biochrom). In the case of metal-complexed ligands, the crude reaction mixture containing the purified metal-complexed inhibitor and remaining metal nitrate, was diluted THE JOURNAL OF NUCLEAR MEDICINE • Vol. 61 • No. 5 • May 2020 Wurzer et al.

LNCaP cells = assay: Internalization into LNCaP cells, normalized to (125I-I-BA)KuE; assay type: cell-based, human; conditions: LNCaP cells 1.25 x 10^5/well, 1 h, 37°C, ligand 0.5 nM/well; % of specific internalization of (125I-I-BA)KuE; 68Ga-19F or 18F free-chelator form; mean ± SD, n = 3
Procedure: Internalization studies were carried out according to a previously published procedure (1). Briefly, LNCaP cells were harvested 24 ± 2 hours before the experiment and seeded in poly -L-lysine coated 24-well plates […]
After removal of the culture medium, the cells were washed once with 500 µL DMEM -F12 (5% BSA) and left to equilibrate for at least 15 min at 37 °C in 200 µL DMEM-F12 (5% BSA). Each well was treated with either 25 µL of either DMEM-F12 (5% BSA, control) or 25 µL of a 100 µM PMPA (2-(Phosphonomethyl)-pentandioic acid, Tocris Bioscience, Bristol, UK) solution in PBS, for blockade. Next, 25 µL of the radioactive-labelled PSMA inhibitor (5.0 nM in PBS) was added and the cells were incubat ed at 37 °C for 60 min. The experiment was terminated by placing the 24 -well plate on ice for 3 min and consecutive removal of the medium. Each well was carefully washed with 250 µL of ice-cold HBSS. Both fractions from the first steps, representing the amount of free radioligand, were combined. Removal of surface bound activity was accomplished by incubation of the cells with 250 µL of ice-cold PMPA (10 µM in PBS) solution for 5 min […]
and rinsed again with another 250 µL of ice-cold PBS. The internalized activity was determined by incubation of the cells in 250 µL 1 M aqueous NaOH for at least 10 min. The obtained fractions were combined with those of the subsequent wash step with 250 µL 1 M aqueous NaOH. Each experiment (control and blockade) was performed in triplicate. Free, surface bound and internalized activity was quantified in a γ-counter. All internalization studies were accompanied by external reference studies, using […]
Data were corrected for non-specific

[1] = Biodistribution in LNCaP tumor-bearing CB-17 SCID mice; conditions: male, mouse, in vivo, iv, 0.2 nmol, total radioactivity, 1 h p.i., i.v. tail vein, mean ± SD, n = 3 (n = 4 for rhPSMA-10)
Excerpt: Mice were used for experiments when tumors had grown to a diameter of 5–10 mm (3–6 wk after inoculation).
Selected organs were removed, weighed, and measured in a γ-counter.

[2] = read-out: Biodistribution, Adrenals
[3] = read-out: Biodistribution, Blood
[4] = read-out: Biodistribution, Bone
[5] = read-out: Biodistribution, Heart
[6] = read-out: Biodistribution, Intestine
[7] = read-out: Biodistribution, Kidneys
[8] = read-out: Biodistribution, Liver
[9] = read-out: Biodistribution, Lung
[10] = read-out: Biodistribution, Muscle
[11] = read-out: Biodistribution, Pancreas
[12] = read-out: Biodistribution, Spleen
[13] = read-out: Biodistribution, Stomach
[14] = LNCaP tumor, read-out: Biodistribution, Tumor

Structure (SMILES)	HSA-binding (human serum albumin) [%]	Internalization (LNCaP cells)	tissue uptake at 1 h [1, 2] [%ID/g]	tissue uptake at 1 h [1, 3] [%ID/g]	tissue uptake at 1 h [1, 4] [%ID/g]	tissue uptake at 1 h [1, 5] [%ID/g]	tissue uptake at 1 h [1, 6] [%ID/g]	tissue uptake at 1 h [1, 7] [%ID/g]	tissue uptake at 1 h [1, 8] [%ID/g]	tissue uptake at 1 h [1, 9] [%ID/g]	tissue uptake at 1 h [1, 10] [%ID/g]	tissue uptake at 1 h [1, 11] [%ID/g]	tissue uptake at 1 h [1, 12] [%ID/g]	tissue uptake at 1 h [1, 13] [%ID/g]	tissue uptake at 1 h [1, 14] [%ID/g]
CC(C)(C)[Si](F)(c1ccc(C(=O)NC[C@@H](C(=O)N[C@H](CCCCNC(=O)CCC(=O)NCCC[C@@H](NC(=O)CC[C@H](NC(=O)N[C@@H](CCC(=O)O)C(=O)O)C(=O)O)C(=O)O)C(=O)O)n2cc(CNC(=O)CCP(=O)(O)CN3CCN(CP(=O)(O)CCC(=O)O)CCN(CP(=O)(O)CCC(=O)O)CC3)nn2)cc1)C(C)(C)C [68/natGa-19/18F-rhPSMA-9, metal not drawn]	95	180 ± 12 % of reference	2.7 ± 0.2	0.46 ± 0.11	0.18 ± 0.05	0.48 ± 0.17	0.44 ± 0.34	54.9 ± 3	0.42 ± 0.07	0.94 ± 0.2	0.19 ± 0.06	0.39 ± 0.09	25.4 ± 5.2	0.48 ± 0.4	7.2 ± 0.6
CC(C)(C)[Si](F)(c1ccc(C(=O)NC[C@@H](NC(=O)CCC(C(=O)O)N2CCN(CC(=O)O)CCN(CC(=O)O)CCN(CC(=O)O)CC2)C(=O)N[C@H](CCCCNC(=O)CCCCCCC(=O)NCCCC[C@H](NC(=O)N[C@@H](CCC(=O)O)C(=O)O)C(=O)O)C(=O)O)cc1)C(C)(C)C (some centres unmarked) [68/natGa-19/18F-rhPSMA-6, metal not drawn]	–	33 ± 2 % of reference	–	–	–	–	–	–	–	–	–	–	–	–	–
CC(C)(C)[Si](F)(c1ccc(C(=O)NC[C@@H](C(=O)N[C@H](CCCCNC(=O)CCCCCCC(=O)NCCCC[C@H](NC(=O)N[C@@H](CCC(=O)O)C(=O)O)C(=O)O)C(=O)O)n2cc(CNC(=O)CCP(=O)(O)CN3CCN(CP(=O)(O)CCC(=O)O)CCN(CP(=O)(O)CCC(=O)O)CC3)nn2)cc1)C(C)(C)C [68/natGa-19/18F-rhPSMA-5, metal not drawn]	–	43 ± 3 % of reference	–	–	–	–	–	–	–	–	–	–	–	–	–
CC(C)(C)[Si](F)(c1ccc(C(=O)N[C@H](CNC(=O)CCC(C(=O)O)N2CCN(CC(=O)O)CCN(CC(=O)O)CCN(CC(=O)O)CC2)C(=O)N[C@H](CCCCNC(=O)CCC(=O)NCCC[C@@H](NC(=O)CC[C@H](NC(=O)N[C@@H](CCC(=O)O)C(=O)O)C(=O)O)C(=O)O)C(=O)O)cc1)C(C)(C)C (some centres unmarked) [68/natGa-19/18F-rhPSMA-8, metal not drawn]	97	98 ± 12 % of reference	2.2 ± 0.8	1.7 ± 0.1	0.32 ± 0.07	0.93 ± 0.08	0.35 ± 0.01	82.3 ± 5.9	0.79 ± 0.17	1.3 ± 0.2	0.24 ± 0.02	0.48 ± 0.11	6.3 ± 1.5	0.42 ± 0.11	6.5 ± 0.8
